Patent US20180251563A1 (SUBDOMAIN, published 2018)
Changes are numbered by the printed parent chain.

T1: CD123 (target of Example 19) (Homo sapiens (Human), UniProt P26951 19-305, limits assumed)
T1 sequence: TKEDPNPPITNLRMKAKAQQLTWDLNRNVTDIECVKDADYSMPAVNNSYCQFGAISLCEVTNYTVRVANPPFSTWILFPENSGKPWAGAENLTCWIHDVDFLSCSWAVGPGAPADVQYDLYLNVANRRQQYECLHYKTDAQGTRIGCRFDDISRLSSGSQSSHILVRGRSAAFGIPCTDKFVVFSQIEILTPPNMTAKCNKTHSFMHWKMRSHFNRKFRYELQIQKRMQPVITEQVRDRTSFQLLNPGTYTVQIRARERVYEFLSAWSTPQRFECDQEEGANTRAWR

B1: SEQ ID NO 90 (designed binder)
chain: MGSWILFKDDLAWIKETLEALGGSEAELAFFEDNIADFEEQLQGYKGKGNPEVEALRKEAAAIRDELQAYRHN
B2: SEQ ID NO 91 (designed binder)
chain: B1 chain with I5Q, L6W, W13Y, F30L, N34M, E40F, Q41E, G44W
B3: SEQ ID NO 69 (designed binder)
chain: MGSWWEFTDRLEAIEDRLWALGGSEAELAHFEDSIAQFEQELQWYKGKGNPEVEALADEADAIESELHAYRHN
B4: SEQ ID NO 96 (designed binder)
chain: MGSWIEFNMRLDAIYERLVALGGSEAELAAFEKEIAAFESELQAYKGKGNPEVEWLRKVAANIRLELQAYRHN
B5: SEQ ID NO 124 (designed binder)
chain: B4 chain with I5S, N8Y, M9L, E16D, V19D, V59T, L65E
B6: SEQ ID NO 97 (designed binder)
chain: B4 chain with I5S, V19T, K58H, V59S, N62R
B7: SEQ ID NO 98 (designed binder)
chain: B4 chain with I5V, M9I, V19Y, W55K, K58H, V59W, N62S, L65R
B8: SEQ ID NO 125 (designed binder)
chain: B4 chain with I5S, N8H, M9V, E16A, V19D, W55R, K58E, V59W, L65R
B9: SEQ ID NO 123 (designed binder)
chain: B4 chain with I5T, M9L, E16D, V19M, K58A, V59S, N62A, L65V
B10: SEQ ID NO 103 (designed binder)
chain: B4 chain with N8E, M9V, E16N, V19A, W55R, K58R, V59Y, L65H
B11: SEQ ID NO 105 (designed binder)
chain: B4 chain with I5Y, N8H, M9H, V19L, K58S, V59S, L65K
B12: SEQ ID NO 94 (designed binder)
chain: B4 chain with I5T, N8A, M9W, E16D, V19L, K58H, L65R
B13: SEQ ID NO 75 (designed binder)
chain: MGSWVTFKDELADIKDFLEALGGSEAELAFFEVDIAEFEAELQFYKGKGNPEVEALRKEAAAIRDELQAYRHN
B14: SEQ ID NO 86 (designed binder)
chain: B13 chain with V5Y, T6V, D13E, D16Q, F30W, V33D, A40T, E41Q, F44H
B15: SEQ ID NO 85 (designed binder)
chain: MGSWHVFKTELADIKFYLEALGGSEAELAMFELWIAEFEHELQDYKGKGNPEVEALRKEAAAIRDELQAYRHN
B16: SEQ ID NO 81 (designed binder)
chain: MGSWYIFKEDLAEIKEELEALGGSEAELAYFEEEIALFEMELQWYKGKGNPEVEALRKEAAAIRDELQAYRHN
B17: SEQ ID NO 73 (designed binder)
chain: MGSWYDFKEDLADIKWMLEALGGSEAELAEFENVIAYFENDLQEYKGKGNPEVEALRKEAAAIRDELQAYRHN
B18: SEQ ID NO 67 (designed binder)
chain: MGSWSEFVDRLDAIFDRLWALGGSEAELAWFEDTIAHFEWNLQEYKGKGNPEVEALNGEADAITDELHAYRHN
B19: SEQ ID NO 74 (designed binder)
chain: MGSWSFFKDDLAEIKYFLEALGGSEAELAMFEQTIAEFEYDLQDYKGKGNPEVEALRKEAAAIRDELQAYRHN
B20: SEQ ID NO 78 (designed binder)
chain: MGSWDEFKEDLAHIKTDLEALGGSEAELALFEDEIADFEMYLQHYKGKGNPEVEALRKEAAAIRDELQAYRHN
B21: SEQ ID NO 66 (designed binder)
chain: MGSWEEFDKRLDAITRRLMALGGSEAELAEFESTIAWFEWDLQEYKGKGNPEVEALDWEAYAIDYELGAYRHN
B22: SEQ ID NO 99 (designed binder)
chain: MGSWDEFGRRLYAIEWRLYALGGSEAELAAFEKEIAAFESELQAYKGKGNPEVEKLREIAAVIRSNLQAYRHN
notes: also called cg06
B23: SEQ ID NO 71 (designed binder)
chain: MGSWDHFKNDLAWIKKHLEALGGSEAELAEFEAVIAYFELYLQGYKGKGNPEVEALRKEAAAIRDELQAYRHN
B24: SEQ ID NO 87 (designed binder)
chain: MGSWTEFKGELAEIKWILEALGGSEAELAFFEDEIAAFEWDLQKYKGKGNPEVEALRKEAAAIRDELQAYRHN
B25: SEQ ID NO 83 (designed binder)
chain: MGSWFNFKEELAVIKFQLEALGGSEAELAFFEWVIADFEDDLQEYKGKGNPEVEALRKEAAAIRDELQAYRHN
B26: SEQ ID NO 93 (designed binder)
chain: MGSWSEFWQRLEAIEDRLWALGGSEAELAAFEKEIAAFESELQAYKGKGNPEVEWLRENAAMIRDELQAYRHN
B27: SEQ ID NO 110 (designed binder)
chain: B26 chain with S5Y, W8E, Q9Y, W55Y, N59E, M62W, D65V, E66W
B28: SEQ ID NO 100 (designed binder)
chain: B26 chain with S5I, W8Y, Q9D, E15Y, W19D, N59D, M62F, D65S, E66W
B29: SEQ ID NO 104 (designed binder)
chain: B26 chain with S5T, W8H, Q9D, E15D, W55Y, N59E, M62Q, D65W
B30: SEQ ID NO 111 (designed binder)
chain: B26 chain with S5V, W8E, Q9N, D16N, N59D, M62Q, D65M, E66M
B31: SEQ ID NO 112 (designed binder)
chain: B26 chain with S5Y, Q9D, E15D, W55A, E58Q, N59E, M62W, D65E
B32: SEQ ID NO 115 (designed binder)
chain: B26 chain with S5W, W8E, Q9M, W19F, W55S, E58W, N59E, M62F, E66I
B33: SEQ ID NO 68 (designed binder)
chain: MGSWWEFTDRLDAIFDRLWALGGSEAELAAFEESIAIFEQDLQYYKGKGNPEVEALEYEANAIQYELEAYRHN
B34: SEQ ID NO 70 (designed binder)
chain: MGSWEWFKSDLASIKWELEALGGSEAELAWFEHDIAEFEEDLQWYKGKGNPEVEALRKEAAAIRDELQAYRHN
B35: SEQ ID NO 77 (designed binder)
chain: B34 chain with E5W, W6E, S9E, S13E, E17F, E37K, E40F, D41E, W44Y
B36: SEQ ID NO 76 (designed binder)
chain: B34 chain with E5S, S9E, S13D, W16F, H33L, E37D, E40Q, D41A, W44Q
B37: SEQ ID NO 89 (designed binder)
chain: B34 chain with E5S, S9E, W16A, E17V, W30F, H33S, E40Q, D41E, W44Y
B38: SEQ ID NO 80 (designed binder)
chain: MGSWQIFKGELAYIKQYLEALGGSEAELAFFEFDIAEFEEDLQYYKGKGNPEVEALRKEAAAIRDELQAYRHN
B39: SEQ ID NO 72 (designed binder)
chain: MGSWEFFKEVLAEIKYDLEALGGSEAELAWFETDIAGFEIDLQVYKGKGNPEVEALRKEAAAIRDELQAYRHN
B40: SEQ ID NO 84 (designed binder)
chain: B39 chain with E5Y, F6M, V10E, E13D, Y16W, D17Y, T33D, I40W, V44A
B41: SEQ ID NO 79 (designed binder)
chain: MGSWFMFKEELADIKDWLEALGGSEAELASFESYIAWFEQDLQWYKGKGNPEVEALRKEAAAIRDELQAYRHN
B42: SEQ ID NO 88 (designed binder)
chain: MGSWFWFKEDLAFIKEDLEALGGSEAELAWFEDGIAFFEWDLQDYKGKGNPEVEALRKEAAAIRDELQAYRHN
B43: SEQ ID NO 95 (designed binder)
chain: MGSWDEFYYRLEAIEMRLGALGGSEAELAAFEKEIAAFESELQAYKGKGNPEVEELRHYAAQIRHMLQAYRHN
B44: SEQ ID NO 82 (designed binder)
chain: MGSWYYFKDELADIKWDLEALGGSEAELAWFEMLIAQFELDLQWYKGKGNPEVEALRKEAAAIRDELQAYRHN
B45: SEQ ID NO 92 (designed binder)
chain: MGSWEEFHSRLDAIDDRLWALGGSEAELAAFEKEIAAFESELQAYKGKGNPEVEWLRWEAATIRETLQAYRHN

The binders below were run against T1, CD123 (target of Example 19) (assay: library selection; assay not described).

Binder | binding result
B1 | binds
B2 | binds
B3 | binds
B4 | binds
B5 | binds
B6 | binds
B7 | binds
B8 | binds
B9 | binds
B10 | binds
B11 | binds
B12 | binds
B13 | binds
B14 | binds
B15 | binds
B16 | binds
B17 | binds
B18 | binds
B19 | binds
B20 | binds
B21 | binds
B22 | binds
B23 | binds

Binder | binding result
B24 | binds
B25 | binds
B26 | binds
B27 | binds
B28 | binds
B29 | binds
B30 | binds
B31 | binds
B32 | binds
B33 | binds
B34 | binds
B35 | binds
B36 | binds
B37 | binds
B38 | binds
B39 | binds
B40 | binds
B41 | binds
B42 | binds
B43 | binds
B44 | binds
B45 | binds
